From patent US20220401480A1 (NOILE IMMUNE BIOTECH, published 2022)

Target: T1, recombinant fusion protein including mouse PD-1 and immunoglobulin Fc portion (mouse, UniProt Q02242 25-167, limits assumed)
T1 construct: also called mouse PD-1-Fc; not shown: immunoglobulin Fc portion
T1 sequence (looked up): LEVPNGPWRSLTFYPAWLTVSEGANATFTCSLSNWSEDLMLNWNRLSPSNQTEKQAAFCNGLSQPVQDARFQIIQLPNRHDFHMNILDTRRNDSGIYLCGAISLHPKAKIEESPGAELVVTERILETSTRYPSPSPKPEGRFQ
Test: ELISA: mouse PD-1-Fc immobilized in wells; scFv from conditioned medium of conv./PD-1 and 7x19/PD-1 CAR-T cells captured; detected with anti-FLAG tag or anti-6xHis tag; signal observed for both (FIG. 15)
Method: Prior to using various CAR-T cells in experiments, the concentration of anti-mPD-1 scFv (also referred to PD-1scFv) was measured using two kinds of ELISA kit. Specifically, a conditioned medium of the untransduced T cells, the anti-hCD20-CAR-expressing T cells, the anti-hCD20 CAR-IL-7/CCL19-expressing T cells, the anti-hCD20-CAR-anti-PD-1-antibody-expressing T cells, or the anti-hCD20-CAR-IL-7/CCL19-anti-PD-1-antibody-expressing T cells was collected after 2 days of cultivation, and the concentrations of […] in the conditioned medium were measured using ELISA. In the ELISA, a recombinant fusion protein including mouse PD-1 and immunoglobulin Fc portion was immobilized in the wells, PD-1 scFv was captured thereto, and an anti-FLAG tag or anti-6xHis tag was used for detection. In FIG. 15, the average value over the triplicate wells as well as the standard deviation thereof are indicated in the graph. In each graph, data are arranged from the left to the right: the untransduced T cells (uninf.), the anti-hCD20-CAR-expressing T cells (conv.), the anti-hCD20 CAR-IL-7/CCL19-expressing T cells (7×19), the anti-hCD20-CAR-anti-PD-1-antibody-expressing T cells (conv./PD-1), the anti-hCD20-CAR-IL-7/CCL19-anti-PD-1-antibody-expressing T cells (7×19/PD-1), and a culture medium only (data obtained by performing the same treatment on the culture liquid to which T cells were not added).

binding result: binds
B1: anti-mPD-1 scFv (anti-mouse-PD-1 scFv with FLAG tag and His tag, secreted by transduced mouse T cells) (scFv)
scFv: QFVLTQPKTVSESLGRTVTISCKRSSGSVGDYYVSWHQQRFGSSPKTVIYLDDERPSGVPKRFSGSIDSSSNSASLTITDLQTDDEADYFCLSYDSNNHFVFGSGTHLTVLGGGGSGGGGSGGGGSEVQLVESGGGLAQPGKSLKLSCEASGFTFSDYGMNWFRQAPGKGLEWVAYISSGSNKITYADTVKGRFTVSRDNGKNQLFLQMNNLKSEDTAIYYCVDSGFNSYSDVWGQGIQVTVSSDYKDDDDKFVEHHHHHH
notes: It was tested as conditioned medium and was not purified; also called anti-PD-1 scFv
